Target: T1, GAL4-Rb fusion protein (pBIND-Rb) (UniProt P06400 1-928)
T1 construct: source: HEK293T, transiently transfected, mammalian two-hybrid fusion
T1 sequence (looked up): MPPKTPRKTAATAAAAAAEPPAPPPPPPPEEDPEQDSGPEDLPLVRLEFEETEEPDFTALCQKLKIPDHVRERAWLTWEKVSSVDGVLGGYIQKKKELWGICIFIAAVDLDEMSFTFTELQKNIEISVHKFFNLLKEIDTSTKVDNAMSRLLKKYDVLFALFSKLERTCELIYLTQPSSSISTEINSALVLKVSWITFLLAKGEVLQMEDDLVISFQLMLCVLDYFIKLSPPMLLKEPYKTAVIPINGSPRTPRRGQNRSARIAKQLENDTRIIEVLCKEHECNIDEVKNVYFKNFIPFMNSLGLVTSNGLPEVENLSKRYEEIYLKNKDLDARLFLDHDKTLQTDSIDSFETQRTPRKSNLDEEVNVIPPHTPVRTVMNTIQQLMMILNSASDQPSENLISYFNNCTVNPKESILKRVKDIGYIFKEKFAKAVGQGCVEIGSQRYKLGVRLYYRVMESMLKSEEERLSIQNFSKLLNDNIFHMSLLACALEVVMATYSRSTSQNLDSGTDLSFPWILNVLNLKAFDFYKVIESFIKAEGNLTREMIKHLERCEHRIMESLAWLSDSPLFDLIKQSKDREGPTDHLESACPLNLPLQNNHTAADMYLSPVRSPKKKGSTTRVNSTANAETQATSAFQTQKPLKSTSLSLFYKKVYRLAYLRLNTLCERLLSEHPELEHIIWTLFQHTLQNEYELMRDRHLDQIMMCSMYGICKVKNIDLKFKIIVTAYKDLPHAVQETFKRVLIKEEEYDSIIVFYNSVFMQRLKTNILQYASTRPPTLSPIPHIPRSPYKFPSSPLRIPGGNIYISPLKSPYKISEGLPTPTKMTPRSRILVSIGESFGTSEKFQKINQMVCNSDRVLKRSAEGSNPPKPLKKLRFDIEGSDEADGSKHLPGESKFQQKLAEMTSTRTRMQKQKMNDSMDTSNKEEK
Experiment: two-hybrid; mammalian two-hybrid in HEK293T: pBIND (GAL4 DNA-binding domain) and pACT (VP16 activation domain) fusions with pG5luc reporter; luciferase read 48 h after transfection; negative controls pBIND and pACT vectors
Conditions: partners not purified

fold activation of the reporter over the negative controls: ~7 times
B1: VP16-SLPI fusion protein (pACT-SLPI) (natural protein, UniProt P03973 1-132, looked up)
chain: MKSSGLFPFLVLLALGTLAPWAVEGSGKSFKAGVCPPKKSAQCLRYKKPECQSDWQCPGKKRCCPDTCGIKCLDPVDTPNPTRRKPGKCPVTYGQCLMLNPPNFCEMDGQCKRDLKCCMGMCGKSCVSPVKA
notes: the legend names only pACT constructs of both; source: HEK293T, transiently transfected, mammalian two-hybrid fusion

From publication PMC5752445, “Secretory leukocyte protease inhibitor (SLPI) as a potential target for inhibiting metastasis of triple-negative breast cancers” (Oncotarget, 2017)
